# Positions of bridges follow the written chain, without caps; N, C: chain ends. Residues, ends and D or L forms follow the SMILES beside them.
# T1: hamster α1B-adrenoceptor (hamster), P18841
# T1 chain: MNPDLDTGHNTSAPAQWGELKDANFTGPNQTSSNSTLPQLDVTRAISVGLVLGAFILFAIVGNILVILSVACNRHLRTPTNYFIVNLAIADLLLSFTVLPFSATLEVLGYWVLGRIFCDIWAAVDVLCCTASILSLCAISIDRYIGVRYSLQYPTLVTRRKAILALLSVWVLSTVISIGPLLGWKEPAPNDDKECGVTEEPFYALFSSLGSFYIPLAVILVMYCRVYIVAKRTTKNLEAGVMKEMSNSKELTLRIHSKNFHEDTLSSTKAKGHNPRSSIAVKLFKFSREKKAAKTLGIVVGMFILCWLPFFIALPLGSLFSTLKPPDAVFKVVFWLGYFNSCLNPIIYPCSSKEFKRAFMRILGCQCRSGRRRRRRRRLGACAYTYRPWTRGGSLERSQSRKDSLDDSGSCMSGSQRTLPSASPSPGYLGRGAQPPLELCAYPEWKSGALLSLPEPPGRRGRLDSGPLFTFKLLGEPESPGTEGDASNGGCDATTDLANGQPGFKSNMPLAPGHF
# T2: rat α1A-adrenoceptor (rat), P43140
# T2 chain: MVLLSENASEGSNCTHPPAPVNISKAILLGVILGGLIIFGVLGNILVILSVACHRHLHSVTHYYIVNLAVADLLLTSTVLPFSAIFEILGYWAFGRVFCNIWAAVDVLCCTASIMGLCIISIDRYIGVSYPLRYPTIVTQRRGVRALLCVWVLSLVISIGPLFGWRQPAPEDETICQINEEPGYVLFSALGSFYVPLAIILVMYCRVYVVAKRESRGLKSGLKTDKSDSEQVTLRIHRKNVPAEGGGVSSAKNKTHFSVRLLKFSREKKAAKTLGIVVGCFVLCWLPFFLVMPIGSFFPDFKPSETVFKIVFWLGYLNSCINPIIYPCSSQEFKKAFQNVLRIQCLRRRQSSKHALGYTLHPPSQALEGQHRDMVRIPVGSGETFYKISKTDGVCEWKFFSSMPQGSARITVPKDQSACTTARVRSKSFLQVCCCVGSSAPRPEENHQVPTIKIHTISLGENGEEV
# T3: rat α1D-adrenoceptor (rat), P23944
# T3 chain: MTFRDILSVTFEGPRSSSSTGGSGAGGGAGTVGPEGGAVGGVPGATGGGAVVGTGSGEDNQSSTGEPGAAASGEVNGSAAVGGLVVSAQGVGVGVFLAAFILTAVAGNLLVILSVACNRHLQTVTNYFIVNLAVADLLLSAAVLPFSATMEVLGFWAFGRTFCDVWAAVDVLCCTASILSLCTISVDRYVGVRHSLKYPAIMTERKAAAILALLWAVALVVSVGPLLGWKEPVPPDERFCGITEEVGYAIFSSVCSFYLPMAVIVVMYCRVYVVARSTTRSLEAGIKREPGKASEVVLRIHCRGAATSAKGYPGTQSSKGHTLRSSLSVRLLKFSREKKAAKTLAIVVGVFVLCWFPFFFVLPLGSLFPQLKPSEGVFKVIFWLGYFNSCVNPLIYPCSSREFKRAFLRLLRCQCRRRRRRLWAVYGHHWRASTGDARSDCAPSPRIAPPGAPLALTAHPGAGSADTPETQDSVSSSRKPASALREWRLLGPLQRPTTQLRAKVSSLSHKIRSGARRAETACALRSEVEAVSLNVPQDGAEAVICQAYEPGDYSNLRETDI
# B1: ρ-TIA (peptide)
# peptide: FNWRCCLIPACRRNHKKFC
# modifications: not checked
# Key:
# [1] = system: bisected rat prostatic vas deferens
# [2] = molecular target: T1, hamster α1B-adrenoceptor (hamster), …
# [3] = molecular target: T2, rat α1A-adrenoceptor (rat), P43140
# [4] = molecular target: T3, rat α1D-adrenoceptor (rat), P23944
# [5] = molecular target: T1, hamster α1B-adrenoceptor (hamster), …
Molecule,IC50 [1] [nM],-log Ki [2],-log Ki [3],-log Ki [4],Ki [5] [nM]
"CC[C@H](C)[C@@H]1NC(=O)[C@H](CC(C)C)NC(=O)[C@@H]2CSSC[C@@H](C(N)=O)NC(=O)[C@H](Cc3ccccc3)NC(=O)[C@H](CCCCN)NC(=O)[C@H](CCCCN)NC(=O)[C@H](Cc3c[nH]cn3)NC(=O)[C@H](CC(N)=O)NC(=O)[C@H](CCCNC(=N)N)NC(=O)[C@H](CCCNC(=N)N)NC(=O)[C@H](CSSC[C@H](NC(=O)[C@H](CCCNC(=N)N)NC(=O)[C@H](Cc3c[nH]c4ccccc34)NC(=O)[C@H](CC(N)=O)NC(=O)[C@@H](N)Cc3ccccc3)C(=O)N2)NC(=O)[C@H](C)NC(=O)[C@@H]2CCCN2C1=O [ρ-TIA, FNWRCCLIPACRRNHKKFC] (H-FNWRCCLIPACRRNHKKFC-NH2; disulfide 5-11, 6-19)",~300,–,–,–,–
B1,–,7.7,7.29,7.09,20

# Source: patent publication US6849601B1 (priority 1998, dated 2005)
